# Reference: paper PMC12447786
# Biological target: Cys SARS2 Nsp1, fluorescein-labelled (SARS-CoV-2) (UniProt P0DTD1)
# Test: fluorescence polarisation
substance,measurement,value
40S ribosomal subunit purified from rabbit reticulocytes (complex),Kd,27 nM
